In patent publication US20150086562A1 (BIOATLA, published 2015):
Each block holds one binder with its values, some of them ahead of it.

Assays:
[1] = target: T1, recombinant CD22 extracellular domain; assay: The sheet does not state the method. The column 'KD (nM)' stands beside the confocal data, and the target form is taken from FIGURE 18. FIGURE 18 prints 0.30 for this clone.
T1 construct: Kept apart from m18, which is cell-surface CD22; also called CD22 (analyte in the BIAcore runs); CD22 ECD
Procedure: (§1) BIAcore 3000, GE Healthcare was used to determine binding curves and kinetic parameters. An anti-human Fc (1.8 mg/ml) was diluted to a concentration of 50 ug/ml in NaOAc buffer (10 mM, pH 4.8) and coupled to the carboxymethylated dextran matrix of a CM-5 sensor chip using the manufacturer's amine-coupling chemistry as described in the BIAcore systems manual. Using the surface preparation wizard aiming for 10000RU, the carboxyl groups on the sensor surfaces were first activated with NHS/EDC followed by the addition of the anti-human Fc. The remaining activated groups were blocked by the injection of 1M ethanolamine. Each of the flow cells was coupled individually. Employing these conditions, the four flow cell surfaces containing 7554-9571 RU of anti-human Fc were prepared. In preliminary experiments, it was determine that three injections (15 ul at 30 ul/min) 100 mM H₃PO₄/0.05% CHAPS would efficiently remove the bound immunoglobulin and preserve the binding capacity of the immobilized anti-human Fc.
(§2) Experiments were performed on the BIAcore 3000 at 25° C. and a flow rate of 30 ul/min. […] Using the 1:1 model in BIAevaluation 4.1, both a local fit and global fit was done for both dissociation (kd, [s−1] and association (ka, [M⁻¹s⁻¹]) and the dissociation constant (KD, [M]) calculated (kd/ka).
Target sequence in this assay (chain, as listed by the source limits assumed): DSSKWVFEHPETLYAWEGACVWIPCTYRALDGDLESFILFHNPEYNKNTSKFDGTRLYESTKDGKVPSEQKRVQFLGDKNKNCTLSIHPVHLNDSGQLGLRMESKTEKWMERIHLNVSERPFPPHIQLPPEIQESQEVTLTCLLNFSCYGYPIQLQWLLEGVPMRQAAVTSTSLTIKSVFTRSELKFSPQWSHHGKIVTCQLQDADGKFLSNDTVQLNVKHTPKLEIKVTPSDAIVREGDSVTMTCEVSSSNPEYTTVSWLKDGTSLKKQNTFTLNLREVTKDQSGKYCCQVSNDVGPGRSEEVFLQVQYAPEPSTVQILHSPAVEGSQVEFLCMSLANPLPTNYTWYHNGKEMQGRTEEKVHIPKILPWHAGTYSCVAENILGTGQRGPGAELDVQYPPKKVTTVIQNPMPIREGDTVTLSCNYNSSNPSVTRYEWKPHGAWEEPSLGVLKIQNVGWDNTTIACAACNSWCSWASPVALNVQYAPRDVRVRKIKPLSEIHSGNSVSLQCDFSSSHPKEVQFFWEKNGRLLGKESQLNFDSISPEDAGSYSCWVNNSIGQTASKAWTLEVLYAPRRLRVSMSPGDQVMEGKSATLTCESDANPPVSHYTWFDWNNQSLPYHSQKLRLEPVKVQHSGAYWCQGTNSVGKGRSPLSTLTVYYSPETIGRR

[2] = target: T1, recombinant CD22 extracellular domain; assay: The sheet does not state the method. The column 'KD (nM)' stands beside the confocal data, and the target form is taken from FIGURE 18. FIGURE 18 prints 0.25 for this clone.
Procedure: as §1, §2

Kd [1]: 2.7 nM
B1: VM1006 (antibody, V domains shown)
VH: QVQLVQSGAEVKKPGASVKVSCKASGYVFTSYWLHWIRQSPSRGLEWLGYINPRNDYTEYNRIFKGRFVFSLDTSVSTAYLQICSLKAEDTAVYYCARRGITTFYWGQG
VL: DIQMTQSPSSLSASVGDRVTITCKSSQSVLYSAVEKNYLAWYQQKPGKAPKLLIYWASTRERGIPDRFSGSGSGTDFTLTISRLEPEDFAVYYCKQYLSSWTFGQG
notes: Humanized antibody with human constant region; also called anti-CD22 Mab clone VM1006

Kd [2]: 0.26 nM
B2: VM1011 (antibody, V domains shown)
VH: QVQLQESGPGLVKPSQTLSLTCTVSGYVFTSYWLHWIRQPPGKGLEWIGYINPRNDYTEYNRIFKGRVTITADKSTSTAYMELSSLRSEDTAVYYCARRGITTFYWGQG
VL: EIVLTQSPATLSLSPGERATLSCKSSQSVLYSAVEKNYLAWYQQKPGQAPRLLIYWASTRERGIPDRFSGSGSGTDFTLTISRLEPEDFAVYYCKQYLSSWTFGQG
notes: Humanized antibody with human constant region; also called anti-CD22 Mab clone VM1011
